Data taken from PMC9788556 (2022).
Numbering of substitutions follows the chain as printed.

B1: F10-Fc (Fc fusion)
chain: QVQLQESGGGLVQAGGSLRLSCAASGRTFSDYFMGWFRQAPGKEREFVAAVSWSGGSTYYADSVKGRFTISRDNAKNTVFLQMNSLKPEDTAVYYCAGGGSYYPMSPYDGMDYWGKGTQVTVSS
B2: nanobody E1 (VHH)
VHH: QVQLQESGGGLVQPGGSLRLSCAASGRTFSSYFMGWFRQAPGKGRVFVASISWSGGSTYYADSVKGRFTISRDNAENTVYLQMNSLKPEDTAVYYCAAGTRATPLDWASGMDYWGKGTQVTVSS
B3: nanobody F10 (VHH)
VHH: B1 chain
B4: nanobody D6 (VHH)
VHH: B1 chain with G16D, D31S, V51I, A75V, F80Y, K87E, T91A, Y108R, D109N
B5: nanobody A11 (VHH)
VHH: QVQLQESGGGLVQPGESLRLSCAASGRTSSSYAMGWFRQAPGKEREFVASISWSGGSTYYADSVKGRFTLSRDNAKNTVYLQMNSLKPEDTAVYYCAADGIFYSDYPLSVDDFHSWGQGTQVTVSS
B6: nanobody G5 (VHH)
VHH: QVQLQESGGGLVQAGGSLRLSCAASGRTFNDYAMYWFRQAPGKEREFVADITWSGSSTYYADSVKGRFTISRDNAKNTVFLQMNSLKPEDTALYYCAADSRYYGIGIGTPRYWGQGTQVTVSS
B7: nanobody B4 (VHH)
VHH: QVQLQESGGGLVQPGGSLRLSCAASGFTLDYYGIGWFRQAPGKEREGVSCISSSDGSTYYADSVKGRFTISRDNAKNTVYLQMNSLKPEDTAVYYCAADLTGIGCTTAQAMGVIGDFGDFGSWGQGTQVTVSS
B8: nanobody E11 (VHH)
VHH: B7 VHH with L29S, S49A, F68S, T101S, G112D
B9: nanobody F5 (VHH)
VHH: QVQLQESGGGLVQPGGSLRLSCAASGFTLDRYAIGWFRQAPGKEREGVSCISSSDGSTYYADSVKGRFTISRDNAKNTVYLQMNSLKPEDTAVYYCARDHGPCTVLADILYDYGMDYWGKGTQVTVSS
B10: nanobody G2 (VHH)
VHH: QVQLQESGGGLVQAGGSLRLSCAASGRTFSNYFMGWFRQAPGKEREFVAAVSWSGGSTYYADSVKGRLTISRDNAKNTVYLQMNSLKPEDTAVYYCAAGERYFPMEPRRGYDYWGQGTQVTVSS
B11: nanobody A10 (VHH)
VHH: QVQLQESGGGLVQAGSSLRLSCAASGGTFSNYAMGWFRQAPGKEREFVAAIGWSGGTYYTDSVEGRFTISRDNAKNTVYLQMNSLKPEDTAVYYCAAKRSGSSWSERGYDYWGQGTQVTVSS
B12: nanobody D11 (VHH)
VHH: B11 VHH with G27R, N31S, K75E, R99A
B13: nanobody D1 (VHH)
VHH: QVQLQESGGGLVQAGDSLRLSCTASGRTFSNHAMGWFRQAPGKEREIVAVIFGTGRNSWYVDSVKGRFTISRDNAKNTVALQMNRLKPEDTAVYYCASGRTWYSGSSMAEYDYWGQGTQVTVSS
B14: F5-Fc (Fc fusion)
chain: B9 VHH

Biological target: T1, Pfs230 Pro-D1D2 (aa 532–889) (Plasmodium falciparum, UniProt P68874 532-889)
T1 chain: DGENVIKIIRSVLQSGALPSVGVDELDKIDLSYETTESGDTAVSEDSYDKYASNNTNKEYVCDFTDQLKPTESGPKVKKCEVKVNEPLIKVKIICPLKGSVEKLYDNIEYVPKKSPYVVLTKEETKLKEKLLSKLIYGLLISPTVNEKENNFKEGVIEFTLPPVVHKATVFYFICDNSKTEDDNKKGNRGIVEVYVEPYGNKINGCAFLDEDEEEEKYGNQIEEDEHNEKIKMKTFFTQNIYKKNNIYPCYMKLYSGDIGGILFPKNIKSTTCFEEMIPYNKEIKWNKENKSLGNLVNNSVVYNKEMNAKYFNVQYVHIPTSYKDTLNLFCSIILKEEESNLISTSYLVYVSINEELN
Test: BLI; only three curves fitted

Binder	koff [s⁻¹]
B1	0.00171

Biological target: T1, Pfs230 Pro-D1D2 (aa 532–889)
Test: BLI; representative curve; only three curves fitted

Binder	Kd [nM]
B1	446

Biological target: T2, Pfs230 D1D2 (aa 587–889) (Plasmodium falciparum, UniProt P68874 587-889)
T2 chain: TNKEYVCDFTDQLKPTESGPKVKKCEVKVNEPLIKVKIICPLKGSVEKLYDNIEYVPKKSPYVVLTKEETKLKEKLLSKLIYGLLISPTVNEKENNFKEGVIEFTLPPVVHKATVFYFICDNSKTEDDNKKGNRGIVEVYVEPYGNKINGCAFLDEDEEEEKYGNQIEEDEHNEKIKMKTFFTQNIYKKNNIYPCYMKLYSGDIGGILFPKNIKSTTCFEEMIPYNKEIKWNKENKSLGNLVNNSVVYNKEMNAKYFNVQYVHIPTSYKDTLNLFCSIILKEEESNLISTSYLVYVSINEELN
Test: BLI

Binder	koff [s⁻¹]
B2	0.000409
B3	8.19e-05
B4	0.000108
B5	0.000152
B6	0.000579
B7	0.00152
B8	0.000733
B9	0.000313
B10	0.00016
B11	0.000805
B12	0.00262

Biological target: T3, Pfs230 D1 (aa 587–731) (Plasmodium falciparum, UniProt P68874 587-731)
T3 chain: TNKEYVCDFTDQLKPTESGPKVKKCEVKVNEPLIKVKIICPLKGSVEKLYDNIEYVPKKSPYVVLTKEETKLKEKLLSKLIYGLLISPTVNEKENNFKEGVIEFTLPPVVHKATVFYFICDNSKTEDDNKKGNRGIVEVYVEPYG
Test: BLI

Binder	koff [s⁻¹]
B2	0.00019
B13	3.72e-05
B3	4.8e-05
B4	0.000158
B5	0.00039
B6	0.000635
B7	0.00138
B8	0.000539
B9	0.000316
B10	0.000179
B11	0.000788
B12	0.00256

Biological target: T2, Pfs230 D1D2 (aa 587–889)
Test: BLI
Remark: another data set of the same source

Binder	koff [s⁻¹]
B1	3.99e-05
B14	0.000351

Biological target: T1, Pfs230 Pro-D1D2 (aa 532–889)
Test: BLI

Binder	koff [s⁻¹]
B14	0.000644

Biological target: T2, Pfs230 D1D2 (aa 587–889)
Test: BLI
Remark: another data set of the same source

Binder	Kd [nM]
B2	3.91
B3	0.45
B4	0.63
B5	1.43
B6	9.09
B7	4.8
B8	2.54
B9	1.22
B10	1.11
B11	5.87
B12	16.1

Biological target: T3, Pfs230 D1 (aa 587–731)
Test: BLI
Remark: another data set of the same source

Binder	Kd [nM]
B2	0.75
B13	0.14
B3	0.12
B4	0.39
B5	1.56
B6	3.36
B7	1.71
B8	2.61
B9	0.81
B10	0.49
B11	3.18
B12	8.31

Biological target: T2, Pfs230 D1D2 (aa 587–889)
Test: BLI; representative curve

Binder	Kd [nM]
B14	0.66

Biological target: T2, Pfs230 D1D2 (aa 587–889)
Test: BLI; representative curve
Remark: another data set of the same source

Binder	Kd [nM]
B2	3.58
B3	0.4
B4	0.51
B5	1.25
B6	8.18
B7	4.62
B8	2.4
B9	1.13
B10	1.07
B11	5.5
B12	15.5

Biological target: T3, Pfs230 D1 (aa 587–731)
Test: BLI; representative curve

Binder	Kd [nM]
B2	0.43
B13	0.29
B3	0.26
B4	0.79
B5	1.47
B6	3.25
B7	2
B8	3.16
B9	1.01
B10	0.36
B11	4.56
B12	10.8
